Source: patent publication US20210009686A1 (BEIJING XUANYI PHARMASCIENCES, published 2021)
Positions count from the first letter of the chain named.

B1: hybridoma clone 10-J10-B (antibody, V domains shown)
VH: QVQLQQSGAELARPGASVKLSCKASGYTFTSWSISWVKQRTGQGLEWIGEIYPRSDNIHYNEKFKGKATLTADKSSSTVYMQLSSLTSEDSAVYFCARAYYGNSFAYWGQGTLVTVSA
VL: DIVMTQSPSSLTVTAGEKVTMTCKSSQILLNSGNQKNYLTWYQQKPGQPPKLLIYWASTRESGVPDRFTGSGSGTDFSLTISSVQAEDLAIYYCQNDYYYPFTFGSGTKLEIK
B2: hybridoma clone 9-M7-A (antibody, V domains shown)
VH: EVQLVESGGALVKPGGSLKLSCAASGFTFSNYAMSWIRQTPEKRLEWVATIIIGGTYTYYPDSVKGRFTISRDNAKNTLYLQMSSLRSEDTALYYCARQVYGNSFAYWGQGTLVTVSA
VL: B1 VL with T22S, I28S, S78T, I91V, D97N, Y99I
B3: hybridoma 1-B13-A (antibody, V domains shown)
VH: B1 VH with S31V, I34M, E46Q, R54K, D56G, I58T, S117P
VL: B1 VL with S10P, V19A, T22S, I28S, K36R, I91V, Y98F, Y99I
B4: hybridoma clone 2-D22-A (antibody, V domains shown)
VH: EVQLVESGGGLVKPGGSRKLSCAASGFTFSDYGMHWVRQAPEKGLEWIAYISSGSSSIYYADTVKGRFTMSRDNAKKTLFLQTTSLRSEDTAMYYCARIARGNAMDYWGQGTSVTVTS
VL: B1 VL with T22S, I28S, K36R, T40A, S78T, I91V, Y99S, F102L, S106A, I112L
B5: hybridoma clone 9-A13-B (antibody, V domains shown)
VH: EVQLVESGGGLVKPGGSRKLSCAASGFSFSDYGMHWVRQAPEKGLEWVAHISSGSSTIYYADTMKGRFTISRDNAKNTLFLQMTSLRSEDTAMYYCARFARGNTMDYWGQGTSVTVSS
VL: B1 VL with T22S, I28S, S78T, A90T, I91V, D97G, Y99S, F102L, S106A, I112L
B6: hybridoma clone 5-J22-A (antibody, V domains shown)
VH: B5 VH with S28T, S56N, T57I, Y59H, M64L
VL: DIVMTQSPSSLTVTAGEKVTMSCKSSQSLLNSGNQKNYLTWYQQKPGQPPKLLIYWASTRESGVPDRFTGSGSGTDFTLTISSVQAEDLTVYYCQNAYSFPLTFGAGTKLELK
B7: hybridoma clone 4-N1-A (antibody, V domains shown)
VH: B5 VH with E6N, S28T, H50Y, A100V, T104S
VL: B6 VL with F100Y
B8: hybridoma clone 9-B11-A (antibody, V domains shown)
VH: B5 VH with S28T, H50Y, T57P, M64V, T104A
VL: B6 VL with E61D, T90A, A97N, S99Y, F100Y, K109N
B9: hybridoma clone 10-K12-A (antibody, V domains shown)
VH: B5 VH with S28T, H35F, A49G, H50Y, T57N, M64V, F99I, T104A
VL: B6 VL with T90A, V91I, A97D, S99F, F100Y
B10: hybridoma clone 9-C6-A (antibody, V domains shown)
VH: B5 VH with S28T, H50Y, A100V, T104S
VL: B6 VL with M21L, G47R, S83N, F100Y
B11: hybridoma clone 7-E20-A (antibody, V domains shown)
VH: B5 VH with S28T, H50Y, Y59H, A61V, M105L
VL: B6 VL with L30F, S32T, A97G, F100Y
B12: hybridoma clone 7-B15-A (antibody, V domains shown)
VH: B5 VH with S28T, V48I, A100V, T104A, M105L
VL: B6 VL with S22N, A97G, F100Y
B13: hybridoma clone 6-C5-A (antibody, V domains shown)
VH: B5 VH with S28T, H50Y, A97T
VL: B6 VL with K36R, Q44R, V91F, A97G, F100Y
B14: hybridoma clone 7-A21-A (antibody, V domains shown)
VH: B5 VH with S28T, H35Y, V48L, H50Y, S56N, M64V, F99I, T104A
VL: B6 VL with T90A, A97D, S99I, F100Y, E111G
B15: hybridoma clone 1-M5-A (antibody, V domains shown)
VH: B2 VH with P14S, K19R, Y32N, L93F, T115S
VL: B1 VL with T22S, I28S, S78T, I91V, D97N, Y99F
B16: hybridoma clone 5-K4-B (antibody, V domains shown)
VH: EVQLQQSGPELVKPGASVKMSCKASGYTFISYLIHWVKQKPGQGLEWIGYINPYNDGTKYNEKFKGKATLTSDKSSSTASMEFSSLTSEDSAVYYCTRGDFWGQGTTLTVSS
VL: B6 VL with T59I, E61A, T90A, V91L, Q95L, A97D
notes: also called 5K41B
B17: hybridoma clone 6-M11-A (antibody, V domains shown)
VH: EVQLVESGGGSVKPGGSRKLSCAASGFTFSDYGMHWVRQAPEKGLEWVAYISSGSNTFYYTDTVKGRFTISRDNAKNTLFLQMTGLRSEDTAMYYCARFTRGNALDYWGQGTSVTVSS
VL: B6 VL with I54L, F100Y
B18: hybridoma clone 2-F13-A (antibody, V domains shown)
VH: B16 VH with I30T, S31N, L33V, I34M, Y54F, N55D, S80Y, F83L, F101Y
VL: B6 VL with S22T, E61D, T69R, T90A, Q95L, A97D
B19: hybridoma clone 10-P2-A (antibody, V domains shown)
VH: EVQLQQSGPALVKPGASVKMSCKASGYSFTGYNIHWVKQSHGKSLEWIGYIDPNNGVTYSNQKFKGKATLTVDKSSSTAYMQLNSLTSEDSAVYYCARPYYGNSFDYWGQGTTLTVSS
VL: DIVMTQSPSSLTVTAGEKVTMSCKSSQSLLNSGNLRNYLTWYQQKPGQPPKLLIYWASTRESGVPDRFTGSGSGTDFTLTINSVQAEDLALYFCQDGYFYPFPFGSGTKLVIK
B20: hybridoma clone 10-L9-A (antibody, V domains shown)
VH: B5 VH with S28T, V48I, H50Y, S52N, M64V, Y94F, T104V, M105L
VL: B6 VL with K24R, K36R, Q48H, S83G, T90A, A97G, F100Y, L112V

Target: T1, claudin 18.1 (CLDN18.1) (human, UniProt P56856 1-261)
T1 construct: also called HEK293-CLDN18.1
T1 sequence (P56856 whole entry): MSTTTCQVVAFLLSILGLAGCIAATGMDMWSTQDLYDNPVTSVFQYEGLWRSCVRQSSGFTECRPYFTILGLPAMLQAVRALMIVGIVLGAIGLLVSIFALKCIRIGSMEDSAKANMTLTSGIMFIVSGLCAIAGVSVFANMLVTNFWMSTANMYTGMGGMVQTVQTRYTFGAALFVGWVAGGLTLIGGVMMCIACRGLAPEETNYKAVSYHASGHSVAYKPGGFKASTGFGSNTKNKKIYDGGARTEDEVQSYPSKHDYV
Assay: FACS, hybridoma supernatant on HEK293-CLDN18.1
Text: (§1) Ten days after fusion, hybridoma supernatants were screened by FACS against HEK293-CLDN18.2, HEK293-CLDN18.1 and HEK293.

Which MFI does the source give for B1 here?
The MFI was 20400.

Which MFI does the source give for B2 here?
The MFI was 7740.

How did the MFI turn out when B3 was run?
Its MFI is 10200.

Which MFI does the source give for B4 here?
The MFI was 6310.

B5 was tested. Which MFI did it give?
The MFI was 6930.

With B6 as the binder, how does the MFI read?
The MFI was 6390.

B7 was tested. Which MFI did it give?
Its MFI is 12100.

B8 was tested. Which MFI did it give?
The MFI was 7630.

For B9, which MFI is on record?
Its MFI is 7910.

Which MFI does the source give for B10 here?
The MFI was 9700.

How did the MFI turn out when B11 was run?
The MFI was 7460.

For B12, which MFI is on record?
Its MFI is 11200.

B13 was tested. Which MFI did it give?
Its MFI is 8130.

B14 was tested. Which MFI did it give?
Its MFI is 6450.

For B15, which MFI is on record?
The MFI was 7950.

For B16, which MFI is on record?
The MFI was 126000.

Which MFI does the source give for B17 here?
The MFI was 8970.

Which MFI does the source give for B18 here?
The MFI was 232000.

For B19, which MFI is on record?
Its MFI is 10900.

Target: T2, claudin 18.2 (CLDN18.2) (human)
T2 construct: also called Claudin 18 isotype 2; HEK293-CLDN18.2
Assay: FACS, hybridoma supernatant on HEK293-CLDN18.2;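 note: flow cytometry of hybridoma supernatants taken 10 days after fusion, applied to HEK293 cells stably expressing CLDN18.2, with MFI standing for mean fluorescence intensity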
Text: as §1

With B1 as the binder, how does the MFI read?
Its MFI is 136000.

With B2 as the binder, how does the MFI read?
The MFI was 70300.

How did the MFI turn out when B3 was run?
The MFI was 61900.

B4 was tested. Which MFI did it give?
Its MFI is 58300.

For B5, which MFI is on record?
Its MFI is 61400.

How did the MFI turn out when B6 was run?
The MFI was 46100.

With B7 as the binder, how does the MFI read?
Its MFI is 80100.

B8 was tested. Which MFI did it give?
Its MFI is 54100.

Which MFI does the source give for B9 here?
Its MFI is 48900.

How did the MFI turn out when B10 was run?
Its MFI is 52400.

Which MFI does the source give for B11 here?
The MFI was 72600.

How did the MFI turn out when B12 was run?
Its MFI is 105000.

Which MFI does the source give for B13 here?
The MFI was 94700.

B14 was tested. Which MFI did it give?
The MFI was 47000.

How did the MFI turn out when B15 was run?
The MFI was 59200.

With B20 as the binder, how does the MFI read?
Its MFI is 127000.

How did the MFI turn out when B16 was run?
The MFI was 70800.

Which MFI does the source give for B17 here?
The MFI was 60500.

How did the MFI turn out when B18 was run?
The MFI was 138000.

For B19, which MFI is on record?
The MFI was 58900.

Target: T1, claudin 18.1 (CLDN18.1)
Assay: in-cell ELISA, hybridoma supernatant on HEK293-CLDN18.1 cells
Experimental: (§2) In-cell ELISAs were performed as follows: 5×10³ HEK293-CLDN18.2 cells were seeded per well in a poly-L-lysine-coated 96-well plate. The plates were then incubated at 37° C. with 5% CO₂ for 2 days. Following incubation, culture media was removed from each well, and the HEK293-CLDN18.2 cells were blocked with 200 μl blocking buffer (3% BSA/PBS (pH 7.4)) per well for 1 hour at room temperature. Each hybridoma supernatant was incubated with cells at room temperature for 1 hour. Cells were gently washed 3 times with 200 μl PBS (pH 7.4) containing 1 mM Ca²⁺ and 0.5 mM Mg²⁺. Next, cells were incubated with 100 μl of HRP-conjugated goat anti-human IgG (H+L) antibody for 1 hour at room temperature. Following the incubation, the cells were washed three times with 200 μl PBS (pH 7.4) containing 1 mM Ca²⁺ and 0.5 mM Mg²⁺. 100 μl of 1-Step™ Ultra TMB-ELISA Substrate was added to each well, and the reactions were stopped by addition of 50 μl of stop solution. OD₄₅₀ was measured using CLARIOStar microplate reader. The in-cell ELISAs were repeated for each clone using HEK293-CLDN18.1 cells.

B1 was tested. Which “OD450/µg IgG” value did it give?
The value was 3.05 OD450/µg IgG.

How did the “OD450/µg IgG” value turn out when B2 was run?
The value was 0.79 OD450/µg IgG.

B4 was tested. Which “OD450/µg IgG” value did it give?
The value was 2.22 OD450/µg IgG.

For B5, which “OD450/µg IgG” value is on record?
The value was 3.34 OD450/µg IgG.

B6 was tested. Which “OD450/µg IgG” value did it give?
The value was 2.16 OD450/µg IgG.

Which “OD450/µg IgG” value does the source give for B7 here?
Its value is 2.87 OD450/µg IgG.

B8 was tested. Which “OD450/µg IgG” value did it give?
Its value is 2.18 OD450/µg IgG.

How did the “OD450/µg IgG” value turn out when B9 was run?
Its value is 2.11 OD450/µg IgG.

How did the “OD450/µg IgG” value turn out when B10 was run?
Its value is 3.82 OD450/µg IgG.

B11 was tested. Which “OD450/µg IgG” value did it give?
The value was 2.23 OD450/µg IgG.

B12 was tested. Which “OD450/µg IgG” value did it give?
Its value is 1.32 OD450/µg IgG.

How did the “OD450/µg IgG” value turn out when B13 was run?
Its value is 1.04 OD450/µg IgG.

For B14, which “OD450/µg IgG” value is on record?
The value was 2.51 OD450/µg IgG.

B15 was tested. Which “OD450/µg IgG” value did it give?
Its value is 1.11 OD450/µg IgG.

Which “OD450/µg IgG” value does the source give for B16 here?
Its value is 139 OD450/µg IgG.

Which “OD450/µg IgG” value does the source give for B17 here?
Its value is 1.55 OD450/µg IgG.

With B18 as the binder, how does the “OD450/µg IgG” value read?
Its value is 13.3 OD450/µg IgG.

For B19, which “OD450/µg IgG” value is on record?
The value was 0.34 OD450/µg IgG.

Target: T2, claudin 18.2 (CLDN18.2)
Assay: in-cell ELISA, hybridoma supernatant on HEK293-CLDN18.2 cells
Experimental: as §2

How did the “OD450/µg IgG” value turn out when B1 was run?
Its value is 102 OD450/µg IgG.

B2 was tested. Which “OD450/µg IgG” value did it give?
The value was 19.2 OD450/µg IgG.

With B4 as the binder, how does the “OD450/µg IgG” value read?
Its value is 16.8 OD450/µg IgG.

For B5, which “OD450/µg IgG” value is on record?
The value was 48.6 OD450/µg IgG.

With B6 as the binder, how does the “OD450/µg IgG” value read?
The value was 15.4 OD450/µg IgG.

With B7 as the binder, how does the “OD450/µg IgG” value read?
The value was 18 OD450/µg IgG.

For B8, which “OD450/µg IgG” value is on record?
Its value is 25.9 OD450/µg IgG.

How did the “OD450/µg IgG” value turn out when B9 was run?
Its value is 12.9 OD450/µg IgG.

Which “OD450/µg IgG” value does the source give for B10 here?
Its value is 28.3 OD450/µg IgG.

For B11, which “OD450/µg IgG” value is on record?
The value was 20.4 OD450/µg IgG.

How did the “OD450/µg IgG” value turn out when B12 was run?
The value was 13.2 OD450/µg IgG.

B13 was tested. Which “OD450/µg IgG” value did it give?
Its value is 12.2 OD450/µg IgG.

B14 was tested. Which “OD450/µg IgG” value did it give?
The value was 18.4 OD450/µg IgG.

With B15 as the binder, how does the “OD450/µg IgG” value read?
Its value is 21.1 OD450/µg IgG.

With B20 as the binder, how does the “OD450/µg IgG” value read?
The value was 9.52 OD450/µg IgG.

For B16, which “OD450/µg IgG” value is on record?
Its value is 88.2 OD450/µg IgG.

For B17, which “OD450/µg IgG” value is on record?
The value was 11.4 OD450/µg IgG.

Which “OD450/µg IgG” value does the source give for B18 here?
The value was 6.49 OD450/µg IgG.

With B19 as the binder, how does the “OD450/µg IgG” value read?
The value was 4.71 OD450/µg IgG.
